Consider two molecules from patent publication US20250163169A1, “ANTIBODIES FOR PREVENTING THE CLEAVAGE OF CD95L BY METALLOPROTEASES” (INSTITUT NATIONAL DE LA SANTÉ ET DE LA RECHERCHE MÉDICALE, priority 2022, published 2025).

In assay [1] the test system is CD95L cleavage by MMP3. As to the kind of experiment: Cleavage of recombinant Ig-CD95L by MMP3 in vitro, cleaved fragment monitored by immunoblotting. Type of assay: biochemical, Homo sapiens. To be noted: Ig-CD95L 100 ng pre-incubated 15 min with antibody (100 pg/mL), then MMP 1 h. The procedure:
(§1) FIG. 2. Monoclonal antibodies targeting the Metalloprotease-Cleavage Sites of CD95L (MCSCs). A. Left panel: The extracellular region of CD95L encompassing amino acid residues 102 to 281 can be cleaved by metalloproteases at different sites. Arrows represent putative cleavage site in CD95L sequence. Right panel: Using three peptides (peptides 1, 2 and 3) covering most of the MCSCs of CD95L, we have generated monoclonal antibodies. Indicated peptides were injected in mice to generate monoclonal antibodies and three different hybridoma were selected regarding their ability to bind CD95L. According to their affinity for the indicated peptides (assessed using ELISA), the 3C7 epitope should cover the […] sequence (SEQ ID NO:24). […] The metalloprotease-cleaved fragment of Ig-CD95L (CD95L devoid of its released Ig domain of gp190) was monitored by immunoblotting. […] CD95L-expressing leukemic T cell 1A12 was incubated for 24 h with indicated antibodies ([…]) or the pan-MMP inhibitor GM6001 (10 μM) and the expression level of membrane-bound CD95L was assessed by flow cytometry. […]
(§2) We have generated different extracellular regions of CD95L fused to large domains including the Ig domain of the gp190 (LIF receptor). […] The privileged cleavage sites (^113EL^114 for MMPs and ^129KQ^130 for ADAM) were then determined from MS/MS sequencing of the resulting cleavage products. […]
(In general: Immunoblotting shows a protein as a band on a membrane.)

Assay [2] concerns CD95L-expressing leukemic T cell 1A12. Description: Expression level of membrane-bound CD95L on 1A12 cells by flow cytometry. Type of assay: cell-based. Conditions: 24 h, antibodies 10 pg/mL, GM6001 10 μM. Here is the method: (§3) FIG. 2. Monoclonal antibodies targeting the Metalloprotease-Cleavage Sites of CD95L (MCSCs). […] Arrows represent putative cleavage site in CD95L sequence. […] Indicated peptides were injected in mice to generate monoclonal antibodies and three different hybridoma were selected regarding their ability to bind CD95L. […] B. Recombinant Ig-CD95L (100 ng) was pre-incubated for 15 min with indicated antibodies (100 pg/mL) and then treated for 1h with the indicated MMPs. The metalloprotease-cleaved fragment of Ig-CD95L (CD95L devoid of its released Ig domain of gp190) was monitored by immunoblotting. C. CD95L-expressing leukemic T cell 1A12 was incubated for 24 h with indicated antibodies ([…]) or the pan-MMP inhibitor GM6001 (10 μM) and the expression level of membrane-bound CD95L was assessed by flow cytometry. D. Supernatants were harvested from cells treated in C and the metalloprotease-cleaved CD95L was dosed by ELISA (Diaclone).
For orientation: In flow cytometry, cells or beads pass a laser one at a time.

Assay [3] relates to CD95L cleavage by MMP2. Description: Cleavage of recombinant Ig-CD95L by MMP2 in vitro, cleaved fragment monitored by immunoblotting. Type of assay: biochemical, Homo sapiens. Conditions: Ig-CD95L 100 ng pre-incubated 15 min with antibody (100 pg/mL), then MMP 1 h. Here is the method: as §1, §2
Chain of CD95L cleavage by MMP2 (P48023 103-281 limits assumed): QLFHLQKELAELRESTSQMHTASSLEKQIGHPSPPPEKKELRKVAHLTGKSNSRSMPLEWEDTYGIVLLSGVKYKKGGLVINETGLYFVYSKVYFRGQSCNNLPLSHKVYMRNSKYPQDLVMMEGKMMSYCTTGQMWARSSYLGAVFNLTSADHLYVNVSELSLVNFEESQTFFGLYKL
The subject of assay [4] is triple negative breast cancer cells MDA-MB-231. As to the kind of experiment: Boyden chamber assay, migration of MDA-MB-231 cells towards 1A12 (CD95L+) cells. Type of assay: cell-based. Conditions: 1A12 (CD95L+) cells in lower chamber, mAb 10 pg/mL, 24 hours. Here is the method: (§4) FIG. 3. Antibody targeting the Metalloprotease-Cleavage Sites of CD95L (MCSCs) blocks the non-apoptotic functions of CD95L without affecting its apoptotic ones. A. WR19L (CD95L−) or 1A12 (CD95L+) cells were placed in the lower chamber of a Boyden chamber assay in the presence of the indicated mAbs ([…]). Triple negative breast cancer cell MDA-MB-231 was added to the upper part of the chamber and cell migration due to the gradient of metalloprotease-cleaved CD95L was evaluated after 24 hours by fixing and staining (Giemsa) migrating cells covering the lower side of the porous membrane. Left panel: Pictures of the Giemsa-stained MDA-MB-231 cells that migrated to the lower side of the membrane in the presence of WR19L (CD95L−) or 1A12 (CD95L+) cells and with isotypic (9E10) or anti-MCSC (3C7) monoclonal antibody. Right panel: Giemsa-stained MDA-MB-231 cells were lysed and absorbance was measured at a wavelength of 560 nm. Values represent the means and SEM of three independently performed experiments. **p<0.01 as calculated using two-tailed Mann-Whitney test. B. Upper panel: Jurkat cells are sensitive to the CD95-mediated apoptotic signal. […] Cell death was monitored by measuring the drop of mitochondrial transmembrane potential (Δψm). […] Cell death was monitored by measuring the drop of mitochondrial transmembrane potential (Δψm). […]

In assay [5] the test system is s-CD95L release from 1A12 cells. Description: Metalloprotease-cleaved CD95L dosed by ELISA in supernatants of 1A12 cells. Type of assay: cell-based. To be noted: 1A12 cells treated 24 hours, vs isotype (anti-myc 9E10 mAb) control. The procedure:
as §3
A general note: An ELISA detects its analyte on a solid surface through an enzyme-linked reagent.

Assay [6] deals with Jurkat cells. Description: Jurkat cell death induced by mAb-pre-treated 1A12 cells, drop of mitochondrial transmembrane potential (DIOC6). Type of assay: cell-based. Conditions: 1A12 cells pre-treated 24 hours with 10 μg/mL mAb, then 4 hours with Jurkat cells. The procedure: as §4

Chain of CD95L cleavage by MMP3 (P48023 103-281 limits assumed): as above

B1: 9F5: Monoclonal antibody targeting Metalloprotease-Cleavage Sites of CD95L; light chain SEQ ID NO:18, heavy chain SEQ ID NO:19 (antibody, listed as Mus musculus, V domains shown)
VH: QVQLQQSGAELAKPGASVKMSCKASGYTFTTYWMHWVKQRPGQDLEWIGYINPRNGYTEYNQNFKDKATLTADKSSTTAFMQLSSLTSEDSALYYCAVDLGYWGQGTLVTVSA
VL: DIVMTQSPSSLAMSVGQKVTMNCKSSQSLLSSRNQKTYLAWYQQKPGQSPKLLVYFTSTRASGVPDRFIGSGGTDFTLTISSVQAEDLALYYCQQHYNTPWTFGGGTKLEIK
Consider B1, for which, in assay [1], the “Cleavage of CD95L by MMP3 in vitro” value is on record as “efficiently abrogated the cleavage”. For the same molecule, in assay [2], the “Expression level of membrane-bound CD95L” value is given as “did not alter”. Also, in assay [3], the “Cleavage of CD95L by MMP2 in vitro” value was “efficiently abrogated the cleavage”.

B2: 3C7: Monoclonal antibody targeting Metalloprotease-Cleavage Sites of CD95L; light chain SEQ ID NO:16, heavy chain SEQ ID NO:17 (antibody, listed as Mus musculus, V domains shown)
VH: QVQLQQSGAELAKPGASVKMSCKTSGYTFTSYWMHWVKQRPGQGLEWIGYINPNTGYTEYIQRFRDKATLTADKSSGTAYMQLSSLTSEDSAVYYCAVDLGYWGQGTLVTVSA
VL: DIVMTQSPSSLAMSVGQKVTMSCKSSQSLLSSRTQKHYLAWYQQKPGQSPKLLVYFTSTRESGVPDRFIGSGSGTDFTLTISSVQAEDLALYYCKQHYNTPWTFGGGTKLEIK
With B2, in assay [4], the “Generation of s-CD95L promoting migration of MDA-MB-231 cells” value is “inhibited”. Moreover, the “Concentrations of s-CD95L in supernatant” value in assay [5] is given as “significantly reduced”. Besides, the “Cleavage of CD95L by MMP3 in vitro” value in assay [1] is given as “efficiently abrogated the cleavage”. The “Expression level of membrane-bound CD95L” value in assay [2] is recorded as “augmentation of m-CD95L similar to that observed with the broad spectrum MMP inhibitor GM6001”. In assay [6], the “Apoptotic function of membrane-bound CD95L” value is on record as “did not prevent the apoptotic function”. Further, in assay [3], the “Cleavage of CD95L by MMP2 in vitro” value is recorded as “efficiently abrogated the cleavage”.
